From EP0758381B1

Key:
[1] = target: Elk receptor on transfected 3T3 fibroblasts; experiment: cell-based or functional assay
[2] = target: Eck receptor chimera (ectodomain of the Eck receptor fused to the cytoplasmic domain of the FGF receptor) on BAF cells; experiment: cell-based or functional assay

potency in the phosphorylation assay, clustered against unclustered ligand [1] [fold] | potency in the proliferation assay, clustered against unclustered ligand [2] [fold] | Substance
100 |  | soluble myc-tagged Efl-3 (ELK-L) (ligand)
 | 100 | soluble myc-tagged Efl-1 (B61) (ligand)
 | 100 | soluble Efl-2 (EHK-1L) produced in COS cells (ligand)
